Target: human FcRn (human)
Assay: BIAcore SPR, soluble IgG over immobilized human FcRn, pH 6.0; reference purified cynomolgus monkey IgG

ratio of the human over cynomolgus IgG concentrations at Req50%: 0.9
Substance: humanized anti-RSV monoclonal antibody MEDI-524 (from UniProt P01857 1-330)

Reference: patent US20080181887A1
